Measured values published in patent publication US12103979B2, “N-acetylated and non-acetylated dipeptides containing arginine to reduce the viscosity of viscous compositions of therapeutic polypeptides” (AMGEN INC., priority 2017, dated 2024).

Experiments:
[1] = Viscosity of therapeutic antibodies of Table 1 at exemplary concentration; format: physicochemical; settings: at the Conc. (133.9-162.5 mg/ml)
[2] = pI of therapeutic antibodies of Table 1; format: physicochemical

| Molecule | Viscosity (cP) [1] [cP] | pl [2] |
| --- | --- | --- |
| CGRP: therapeutic antibody; IgG2, Lambda; LC SEQ ID NO 29, HC SEQ ID NO 30 (antibody, listed as Homo sapiens) heavy: MEFGLSWVFLVALLRGVQCQVQLVESGGGVVQPGRSLRLSCAASGFTFSSFGMHWVRQAPGKGLEWVAVISFDGSIKYSVDSVKGRFTISRDNSKNTLFLQMNSLRAEDTAVYYCARDRLNYYDSSGYYHYKYYGMAVWGQGTTVTVSSASTKGPSVFPLAPCSRSTSESTAALGCLVKDYFPEPVTVSWNSGALTSGVHTFPAVLQSSGLYSLSSVVTVPSSNFGTQTYTCNVDHKPSNTKVDKTVERKCCVECPPCPAPPVAGPSVFLFPPKPKDTLMISRTPEVTCVVVDVSHEDPEVQFNWYVDGVEVHNAKTKPREEQFNSTFRVVSVLTVVHQDWLNGKEYKCKVSNKGLPAPIEKTISKTKGQPREPQVYTLPPSREEMTKNQVSLTCLVKGFYPSDIAVEWESNGQPENNYKTTPPMLDSDGSFFLYSKLTVDKSRWQQGNVFSCSVMHEALHNHYTQKSLSLSPGK light: MTCSPLLLTLLIHCTGSWAQSVLTQPPSVSAAPGQKVTISCSGSSSNIGNNYVSWYQQLPGTAPKLLIYDNNKRPSGIPDRFSGSKSGTSTTLGITGLQTGDEADYYCGTWDSRLSAVVFGGGTKLTVLGQPKANPTVTLFPPSSEELQANKATLVCLISDFYPGAVTVAWKADGSPVKAGVETTKPSKQSNNKYAASSYLSLTPEQWKSHRSYSCQVTHEGSTVEKTVAPTECS | 9.6 | 8.8 |
| PCSK9: therapeutic antibody; IgG2, Lambda; LC SEQ ID NO 73, HC SEQ ID NO 74 (antibody, listed as Homo sapiens) heavy: MDWTWRILFLVAAATGVHSEVQLVQSGAEVKKPGASVKVSCKASGYTLTSYGISWVRQAPGQGLEWMGWVSFYNGNTNYAQKLQGRGTMTTDPSTSTAYMELRSLRSDDTAVYYCARGYGMDVWGQGTTVTVSSASTKGPSVFPLAPCSRSTSESTAALGCLVKDYFPEPVTVSWNSGALTSGVHTFPAVLQSSGLYSLSSVVTVPSSNFGTQTYTCNVDHKPSNTKVDKTVERKCCVECPPCPAPPVAGPSVFLFPPKPKDTLMISRTPEVTCVVVDVSHEDPEVQFNWYVDGVEVHNAKTKPREEQFNSTFRVVSVLTVVHQDWLNGKEYKCKVSNKGLPAPIEKTISKTKGQPREPQVYTLPPSREEMTKNQVSLTCLVKGFYPSDIAVEWESNGQPENNYKTTPPMLDSDGSFFLYSKLTVDKSRWQQGNVFSCSVMHEALHNHYTQKSLSLSPGK light: MDMRVPAQLLGLLLLWLRGARCESALTQPASVSGSPGQSITISCTGTSSDVGGYNSVSWYQQHPGKAPKLMIYEVSNRPSGVSNRFSGSKSGNTASLTISGLQAEDEADYYCNSYTSTSMVFGGGTKLTVLGQPKAAPSVTLFPPSSEELQANKATLVCLISDFYPGAVTVAWKADSSPVKAGVETTTPSKQSNNKYAASSYLSLTPEQWKSHRSYSCQVTHEGSTVEKTVAPTECS |  | 8.1 |
| TSLP: therapeutic antibody; IgG2, Lambda; LC SEQ ID NO 69, HC SEQ ID NO 70 (antibody, listed as Homo sapiens) heavy: MGSTAILGLLLAVLQGGRAQMQLVESGGGVVQPGRSLRLSCAASGFTFRTYGMHWVRQAPGKGLEWVAVIWYDGSNKHYADSVKGRFTITRDNSKNTLNLQMNSLRAEDTAVYYCARAPQWELVHEAFDIWGQGTMVTVSSASTKGPSVFPLAPCSRSTSESTAALGCLVKDYFPEPVTVSWNSGALTSGVHTFPAVLQSSGLYSLSSVVTVPSSNFGTQTYTCNVDHKPSNTKVDKTVERKCCVECPPCPAPPVAGPSVFLFPPKPKDTLMISRTPEVTCVVVDVSHEDPEVQFNWYVDGVEVHNAKTKPREEQFNSTFRVVSVLTVVHQDWLNGKEYKCKVSNKGLPAPIEKTISKTKGQPREPQVYTLPPSREEMTKNQVSLTCLVKGFYPSDIAVEWESNGQPENNYKTTPPMLDSDGSFFLYSKLTVDKSRWQQGNVFSCSVMHEALHNHYTQKSLSLSPGK light: MGSTAILGLLLAVLQGGRASYVLTQPPSVSVAPGQTARITCGGNNLGSKSVHWYQQKPGQAPVLVVYDDSDRPSWIPERFSGSNSGNTATLTISRGEAGDEADYYCQVWDSSSDHVVFGGGTKLTVLGQPKAAPSVTLFPPSSEELQANKATLVCLISDFYPGAVTVAWKADSSPVKAGVETTTPSKQSNNKYAASSYLSLTPEQWKSHRSYSCQVTHEGSTVEKTVAPTECS | 21.4 | 7.2 |
| Dkk1 (11H10): therapeutic antibody; IgG2, Kappa; LC SEQ ID NO 71, HC SEQ ID NO 72 (antibody, listed as Homo sapiens) heavy: MDIRLSLAFLVLFIKGVQCEVQLVESGGGLVQPANSLKLSCAASGFTFSDYAMAWVRQSPKKGLEWVATIIYDGSSTYYRDSVKGRFTISRDNAKSTLYLQMDSLRSEDTATYYCATGLGIATDYFDYWGQGVLVTVSSAETTAPSVYPLAPGTALKSNSMVTLGCLVKGYFPEPVTVTWNSGALSSGVHTFPAVLQSGLYTLTSSVTVPSSTWPSQTVTCNVAHPASSTKVDKKIVPRNCGGDCKPCICTGSEVSSVFIFPPKPKDVLTITLTPKVTCVVVDISQDDPEVHFSWFVDDVEVHTAQTRPPEEQFNSTFRSVSELPILHQDWLNGRTFRCKVTSAAFPSPIEKTISKPEGRTQVPHVYTMSPTKEEMTQNEVSITCMVKGFYPPDIYVEWQMNGQPQENYKNTPPTMDTDGSYFLYSKLNVKKEKWQQGNTFTCSVLHEGLHNHHTEKSLSHSPGK light: MGVPTHLLGLLLLWITHAICDIRMTQSPASLSASLGETVNIECLASEDIYSDLAWYQQKPGKSPQLLIYNANSLQNGVPSRFSGSGSGTQYSLKINSLQSEDVATYFCQQYNNYPPTFGGGTKLELKRADAAPTVSIFPPSTEQLATGGASVVCLMNNFYPRDISVKWKIDGTERRDGVLDSVTDQDSKDSTYSMSSTLSLTKADYESHNLYTCEVVHKTSSSPVVKSFNRNEC | 22.5 | 8.2 |
| Hepcidin: therapeutic antibody; IgG2, Lambda; LC SEQ ID NO 31, HC SEQ ID NO 32 (antibody, listed as Homo sapiens) heavy: MEFGLSWVFLVALLRGVQCQVQLVESGGGVVQPGRSLRLSCAASGFTFSSYGMHWVRQAPGKGLEWVAVIWYAESNKYYADSVKGRFTISRDNSKNTLYLQMNSLRAEDTAVYYCARAQEGIAPDAFDIWGQGTMVTVSSASTKGPSVFPLAPCSRSTSESTAALGCLVKDYFPEPVTVSWNSGALTSGVHTFPAVLQSSGLYSLSSVVTVPSSNFGTQTYTCNVDHKPSNTKVDKTVERKCCVECPPCPAPPVAGPSVFLFPPKPKDTLMISRTPEVTCVVVDVSHEDPEVQFNWYVDGVEVHNAKTKPREEQFNSTFRVVSVLTVVHQDWLNGKEYKCKVSNKGLPAPIEKTISKTKGQPREPQVYTLPPSREEMTKNQVSLTCLVKGFYPSDIAVEWESNGQPENNYKTTPPMLDSDGSFFLYSKLTVDKSRWQQGNVFSCSVMHEALHNHYTQKSLSLSPGK light: MDMRVPAQLLGLLLLWLRGARCYELTQPPSVSVSPGQTATITCSGDKLGERYASWYQQRPGQSPVLVIYQDIKRPSGIPERFSGSNSGNTATLTISGTQAMDEADYFCQAWYSSTNVLFGGGTKLTVLGQPKAAPSVTLFPPSSEELQANKATLVCLISDFYPGAVTVAWKADSSPVKAGVETTTPSKQSNNKYAASSYLSLTPEQWKSHRSYSCQVTHEGSTVEKTVAPTECS | 9.9 | 7.3 |
| Sclerostin (2B8): therapeutic antibody; IgG2, Lambda; LC SEQ ID NO 79, HC SEQ ID NO 80 (antibody, listed as Homo sapiens) heavy: MEFGLSWVFLVALLRGVQCQVQLVESGGGVVQPGRSLRLSCAASGFTFSSYVMHWVRQAPGKGLEWVAVIWYDGSNKYYADSVKGRFTISRDNSKNTLYLQMNSLRAEDTAVYYCAREGYDYGEDYYYYGMDVWGQGTTVTVSSASTKGPSVFPLAPCSRSTSESTAALGCLVKDYFPEPVTVSWNSGALTSGVHTFPAVLQSSGLYSLSSVVTVPSSNFGTQTYTCNVDHKPSNTKVDKTVERKCCVECPPCPAPPVAGPSVFLFPPKPKDTLMISRTPEVTCVVVDVSHEDPEVQFNWYVDGVEVHNAKTKPREEQFNSTFRVVSVLTVVHQDWLNGKEYKCKVSNKGLPAPIEKTISKTKGQPREPQVYTLPPSREEMTKNQVSLTCLVKGFYPSDIAVEWESNGQPENNYKTTPPMLDSDGSFFLYSKLTVDKSRWQQGNVFSCSVMHEALHNHYTQKSLSLSPGK light: MAWAPLLLTLLAHCTGSWANFMLTQPHSVSESPGKTVAISCTRNSGSIASNSVQWYQQRPGSSPTTVIFEDNQRPSGVPDRFSGSIDSSSNSASLTISGLKTEDEADYYCQSYDSNNWVFGGGTKLTVLGQPKANPTVTLFPPSSEELQANKATLVCLISDFYPGAVTVAWKADGSPVKAGVETTKPSKQSNNKYAASSYLSLTPEQWKSHRSYSCQVTHEGSTVEKTVAPTECS | 30.0 | 6.7 |
